The values that follow come from paper PMC5050560.

The labels stand for the following.
B1: Pr120 (dsDNA)
DNA 1: TTTTTATTCCTCCCTTTTTATTTATTAAAATTTATTATATTTTTCTATGATTCACTTAATTAAATTTCTCCATCTACAATTTTTCCATCTACAGATATAG
DNA 2: CTATATCTGTAGATGGAAAAATTGTAGATGGAGAAATTTAATTAAGTGAATCATAGAAAAATATAATAAATTTTAATAAATAAAAAGGGAGGAATAAAAA
B2: Pr35 (dsDNA)
DNA 1: CATTTAAAGAATGGGATATTATGTAATTGTAGATTATGTAGGTTTAAATTATTTATTTTTGTTTTAGCAAATTCTATGAATAGAAGGGGTTTGATTATGG
DNA 2: CCATAATCAAACCCCTTCTATTCATAGAATTTGCTAAAACAAAAATAAATAATTTAAACCTACATAATCTACAATTACATAATATCCCATTCTTTAAATG
B3: Pr106 (dsDNA)
DNA 1: AAAATTTATCATTATATAAGTAACATAC
DNA 2: GTATGTTACTTATATAATGATAAATTTT
B4: Pr54 (dsDNA)
DNA 1: GTAAATATAAGTACTATACATTATAGAGTAG
DNA 2: CTACTCTATAATGTATAGTACTTATATTTAC
B5: Pr53 (dsDNA)
DNA 1: AATATAAGTACTATACATTATAGAG
DNA 2: CTCTATAATGTATAGTACTTATATT
B6: Pr70 (dsDNA)
DNA 1: TTATTTACCCCCTATTGTTTTATTAGGCTAAGTTGATGATTTATTTAACCTATGCTATAATTTTATCACTATGGTACTATATTACAATAATGCACTTTTT
DNA 2: AAAAAGTGCATTATTGTAATATAGTACCATAGTGATAAAATTATAGCATAGGTTAAATAAATCATCAACTTAGCCTAATAAAACAATAGGGGGTAAATAA
B7: Pr121 (dsDNA)
DNA 1: AAGCTACCTTGCATAAATATCTTGGATAGTATATTGATTATATAATCAGTAAATGTTATACTTTTCATGACGATAAAAACATTTTAGTCATAAGGGGGTT
DNA 2: AACCCCCTTATGACTAAAATGTTTTTATCGTCATGAAAAGTATAACATTTACTGATTATATAATCAATATACTATCCAAGATATTTATGCAAGGTAGCTT
B8: Pr111 (dsDNA)
DNA 1: ATATAGGAAATATAGAACAGATTTTCCAAGAAATCTAAATATTCTATGACCACGTGAATTGCTATGCACACATGTTGATAATCCATATTTTAAATCTAAA
DNA 2: TTTAGATTTAAAATATGGATTATCAACATGTGTGCATAGCAATTCACGTGGTCATAGAATATTTAGATTTCTTGGAAAATCTGTTCTATATTTCCTATAT
B9: Pr88 (dsDNA)
DNA 1: GTACTATGTATTATTATAGTAA
DNA 2: TTACTATAATAATACATAGTAC
B10: Pr96 (dsDNA)
DNA 1: AAGTAACATACCCAATTTTGAGGT
DNA 2: ACCTCAAAATTGGGTATGTTACTT
B11: Pr43 (dsDNA)
DNA 1: CTATGTATTATTATAGTAAATATAAGTACTATACATTA
DNA 2: TAATGTATAGTACTTATATTTACTATAATAATACATAG
B12: Pr94 (dsDNA)
DNA 1: AATGAAACAAAAGATGTCATG
DNA 2: CATGACATCTTTTGTTTCATT
B13: Pr29 (dsDNA)
DNA 1: TAAACCTTGTATTATAGAGTACTATGTATTATTATAGTAAATATAAGTACTATACATTATAGAG
DNA 2: CTCTATAATGTATAGTACTTATATTTACTATAATAATACATAGTACTCTATAATACAAGGTTTA
B14: Pr112 (dsDNA)
DNA 1: ATATTTTAGTTATATTTTTGATAGAAAATATTTTATCGTGTATAATACTACTTATAAATAAGAATAAAAATAAAGAGCTTGTTTGGAGGAATTTTAATAA
DNA 2: TTATTAAAATTCCTCCAAACAAGCTCTTTATTTTTATTCTTATTTATAAGTAGTATTATACACGATAAAATATTTTCTATCAAAAATATAACTAAAATAT
B15: Pr105 (dsDNA)
DNA 1: AAAAGATGTCATGATAAGTCATGTAA
DNA 2: TTACATGACTTATCATGACATCTTTT
B16: Pr30 (dsDNA)
DNA 1: TATAGTAAATATAAGTACTATACATTATAGAGTAGTAGGTGAAAAGGCGGTGGTACATAATGCAGTTA
DNA 2: TAACTGCATTATGTACCACCGCCTTTTCACCTACTACTCTATAATGTATAGTACTTATATTTACTATA
B17: Pr102 (dsDNA)
DNA 1: TTTTAACCCTCCTAAAATTTATCATTATATAAGTAACATACCCAATTTTG
DNA 2: CAAAATTGGGTATGTTACTTATATAATGATAAATTTTAGGAGGGTTAAAA
B18: Pr42 (dsDNA)
DNA 1: CTATACATTATAG
DNA 2: CTATAATGTATAG
B19: Pr32 (dsDNA)
DNA 1: TGTATTATAGAGTACTATGTATTATTATAGTAAATATAAGTACTATACATTATAGAGTAGTAGG
DNA 2: CCTACTACTCTATAATGTATAGTACTTATATTTACTATAATAATACATAGTACTCTATAATACA
B20: Pr97 (dsDNA)
DNA 1: TTACTTATATAATGATAAATTTTAGGAG
DNA 2: CTCCTAAAATTTATCATTATATAAGTAA
B21: Pr103 (dsDNA)
DNA 1: TATATAAGTAACATACCCAATTTTGAGGTGAATGAAACAAAAGATGTCAT
DNA 2: ATGACATCTTTTGTTTCATTCACCTCAAAATTGGGTATGTTACTTATATA
B22: Pr68 (dsDNA)
DNA 1: GTACTATACATTATAGAGTAG
DNA 2: CTACTCTATAATGTATAGTAC
B23: Pr122 (dsDNA)
DNA 1: TAGAGTACTATGTATTATTATAGTAAATAT
DNA 2: ATATTTACTATAATAATACATAGTACTCTA
B24: Pr95 (dsDNA)
DNA 1: TAAAATTTATCATTATATAAGTAA
DNA 2: TTACTTATATAATGATAAATTTTA
B25: Pr34 (dsDNA)
DNA 1: TTTGATGAAAAAAATGTTACAATATTTAATATTGAAAATGGCGATGTTATTAGCATAGAGAATGGAGGAAATTAAATGAAACAAGAATACGGTGCAAGTC
DNA 2: GACTTGCACCGTATTCTTGTTTCATTTAATTTCCTCCATTCTCTATGCTAATAACATCGCCATTTTCAATATTAAATATTGTAACATTTTTTTCATCAAA
B26: Pr31 (dsDNA)
DNA 1: AATATAAGTACTATACATTATAGAGTAGTAGGTGAAAAGGCGGTGGTACATAATGCAGTTA
DNA 2: TAACTGCATTATGTACCACCGCCTTTTCACCTACTACTCTATAATGTATAGTACTTATATT
B27: Pr41 (dsDNA)
DNA 1: TACTATACATTATAGAGTAGTA
DNA 2: TACTACTCTATAATGTATAGTA
B28: Pr67 (dsDNA)
DNA 1: AGTACTATACATTATAGAGTAGT
DNA 2: ACTACTCTATAATGTATAGTACT
B29: Pr33 (dsDNA)
DNA 1: GAGTACTATGTATTATTATAGTAAATATAAGTACTATACATTATAGAGTAGTAG
DNA 2: CTACTACTCTATAATGTATAGTACTTATATTTACTATAATAATACATAGTACTC
B30: Pr48 (PnorV) (dsDNA)
DNA 1: TTTTAACCCTCCTAAAATTTATCATTATATAAGTAACATACCCAATTTTGAGGTGAATGAAACAAAAGATGTCATGATAAGTCATGTAAAACAATAGTTT
DNA 2: AAACTATTGTTTTACATGACTTATCATGACATCTTTTGTTTCATTCACCTCAAAATTGGGTATGTTACTTATATAATGATAAATTTTAGGAGGGTTAAAA
B31: Pr104 (dsDNA)
DNA 1: AGGTGAATGAAACAAAAGATGTCATGATAAGTCATGTAAAACAATAGTTT
DNA 2: AAACTATTGTTTTACATGACTTATCATGACATCTTTTGTTTCATTCACCT
B32: Pr27 (PcdpadR1) (dsDNA)
DNA 1: TAAACCTTGTATTATAGAGTACTATGTATTATTATAGTAAATATAAGTACTATACATTATAGAGTAGTAGGTGAAAAGGCGGTGGTACATAATGCAGTTA
DNA 2: TAACTGCATTATGTACCACCGCCTTTTCACCTACTACTCTATAATGTATAGTACTTATATTTACTATAATAATACATAGTACTCTATAATACAAGGTTTA
B33: Pr69 (dsDNA)
DNA 1: ATGCTATAATTTTATCACTATGGTACTATATTACAATAATGCACTTTTTTGTAATATAGTATCTAAAAAGATACTTTAAAATAAATAAAGGAGCTCAAAA
DNA 2: TTTTGAGCTCCTTTATTTATTTTAAAGTATCTTTTTAGATACTATATTACAAAAAAGTGCATTATTGTAATATAGTACCATAGTGATAAAATTATAGCAT

This series concerns the target cdPadR1 (Clostridium difficile R20291, UniProt A0A9R0CDW8 1-109). The experiment in a line: EMSA; 20 mM Tris pH 8.0, 120 mM KCl, 10 mM MgCl2, 5 mM DTT, 12.5% glycerol, 125 ug/mL heparin, room temperature. To be noted: protein: recombinant; tags: N-terminal Strep II; chain copies: 2.
Take B1: the binding result is given as “binds”.

Take B2: the binding result is “binds”.

For B3, the binding result is reported as “no binding”.

As to B4, the binding result is given as “binds”.

With B5, the binding result was “no binding”.

In the case of B6, the binding result is on record as “binds”.

In the case of B7, the binding result is “binds”.

For B8, the binding result is reported as “binds”.

B9: the binding result was “no binding”.

B10: the binding result was “no binding”.

Turning to B11, the binding result is “no binding”.

As for B12, the binding result is “no binding”.

B13: the binding result was “binds”.

With B14, the binding result was “binds”.

B15: the binding result is given as “no binding”.

B16: the binding result is recorded as “binds”.

Turning to B17, the binding result is given as “binds”.

In the case of B18, the binding result was “no binding”.

For the molecule B19, the binding result is “binds”.

As for B20, the binding result is on record as “no binding”.

As for B21, the binding result was “no binding”.

Take B22: the binding result is “binds”.

In the case of B23, the binding result is listed as “binds”.

Regarding B24, the binding result is “no binding”.

Consider B25, for which the binding result is reported as “binds”.

Take B26: the binding result is “binds”.

Regarding B27, the binding result is “binds”.

Consider B28, for which the binding result was “binds”.

With B29, the binding result was “binds”.

For B30, the binding result is “binds”.

For the molecule B31, the binding result is given as “binds”.

Consider B32, for which the binding result was “binds”.

In the case of B33, the binding result is “binds”.
